# US20260327578A1, “TRANSGLUTAMINASES AND USES THEREOF” (CURIE CO. INC., priority 2023, published 2026)
# Assays:
# Type in all cases: biochemical
# [1] = tested on: N,N-dimethylcasein; experiment: Productivity: total product formed after 24 hours (protein functionalization assay); conditions: improvement relative to wild-type Tgase (SEQ ID NO: 2); total product after 24 h
# Protocol: (§1) Enzymatic “productivity” is a measure of product formation or substrate disappearance over time, at a prescribed temperature under specified reaction conditions. It is the measure both the durability and reaction yield of the enzyme variant. In this instance, productivity is defined as total product formed over 24-hours at a constant substrate concentration when the enzyme is the rate limiting factor. The time is defined as 24 hours, which represents approaching or surpassing burnout, denaturation, or self-reaction of the enzyme variant. In other words, variants with higher productivity deliver a higher product yield in 24-hours than variants with lower productivity produce in the same period of time. “Rate” refers to the initial rate for an enzymatic reaction, at a prescribed temperature under specified reaction conditions. The enzyme produces product at an initial rate that is approximately linear for a short period after the start of the reaction. When concentrations of enzyme and substrate are the same across the sample set, initial rates between enzyme variants can be compared. In this instance, the linear range for production of product occurs in one hour. Enzyme variants with faster initial rates deliver a higher product yield in one hour than variants with slower initial rates produce at the same time-period. In some cases, improvements to initial rates also deliver a more productive variant. In some cases, improvements to initial rates result in faster decay of the enzyme variant reducing overall enzymatic productivity. Productivity and rate may be assessed as described in Example 2.
# (§2) Table 6 depicts variants of Streptomyces mobaraensis Tgase and improvement to productivity and/or rate relative to wild-type Tgase (SEQ ID NO. 2) as determined in Example 3. Numbering of amino acid positions is in reference to the mature S. mobaraensis Tgase sequence depicted in SEQ ID NO. 2. A “−” indicates a reduction in activity. A “+” indicates an improvement between 1.2 and 2-fold. A “++” indicates an improvement between 2 and 5-fold. A “+++” indicates an improvement greater than 5-fold.
# To evaluate productivity, total product formed was measured after 24-hours of incubation, using the assay described in Example 4B. The time is defined as 24 hours which represents approaching or surpassing burnout, denaturation, or self-reaction of the enzyme variant.
# (§3) Protein functionalization by Tgase variants was determined by the fluorogenic labeling of casein using monodansylcadaverine (e.g., a commercially available kit such as the Transglutaminase Fluorogenic Activity Assay Kit, T036, Zedira, Germany). Tgase activity was monitored by measuring fluorescence (excitation wavelength 332 nm; emission wavelength 500 nm) using a BioTek Synergy H1 microplate reader. Transglutaminase-catalyzed covalent coupling (crosslinking) of monodansylcadaverine with N,N-dimethylcasein produces a product that causes a shift in intensity and wavelength of fluorescence of the dansyl group now linked to the casein. The relative transglutaminase activity is shown by increase of fluorescence intensity over time. Enzyme variant loading was optimized based on expression levels, ensuring enzyme was the rate limiting factor. Briefly, cell-free reactions (set up as described in Example 2A) were first diluted 10-fold using phosphate buffer, pH 7.4, and a 5 microliter aliquot was analyzed.
# [2] = tested on: collagen; experiment: Collagen-modifying activity with FITC-gelatin or FITC-cadaverine; conditions: 16 hours, pH 7.4
# Protocol: Substrate specificity for collagen of Tgase variant A3 (SEQ ID NO: 4) was tested by allowing the variant to react with either fluorescein-labeled gelatin (FITC-Gelatin, to test protein-protein cross-linking) or fluorescein-labeled cadaverine (FITC-cadaverine, to test protein-small molecule cross-linking) with a collagen layer deposited on the bottom of a 96-well microtiter plate. Tgase variant A3 (SEQ ID NO: 4) and wild-type Tgase were diluted to 4-800 ppm in 50 mM phosphate buffer, pH 7.4, supplemented with 100 mM NaCl in 96-well collagen coated microtiter plates. Either FITC-gelatin or FITC-cadaverine was added to 1 g/L (final volume 100 μL) and the plates were sealed and incubated at either 37° C. or 50° C. for 16 hours. The reaction supernatants were carefully removed and then 200 μL 50 mM [COMPOUND LEFT OUT] mM NaCl, pH 7.4 buffer was added gently against the side of each well then carefully removed. This wash step was repeated. The plate-bound material was extracted by vigorously pipetting 100 μL dimethylsulfoxide into each well, then the extract was transferred into a black bottom 96-well plate. The fluorescence of the samples was measured at an excitation wavelength of 487 nm and an emission wavelength of 528 nm. The fluorescence signal is assumed to be proportionate to the concentration of fluorescent product extracted from the surface of the plate. For both FITC-gelatin and FITC-cadaverine, the fluorescence response per concentration enzyme was higher for wells treated with Tgase variant A3 (SEQ ID NO: 4) than for wells treated with wild-type Tgase (Table 11).
# [3] = tested on: N,N-dimethylcasein; experiment: Rate of product formation over 60 minutes (protein functionalization assay); set-up: key: −: a reduction in activity; +: an improvement between 1.2 and 2-fold; ++: an improvement between 2 and 5-fold; +++: an improvement greater than 5-fold; conditions: improvement relative to wild-type Tgase (SEQ ID NO: 2); initial rate over 60 min
# Protocol: as §1, §2
# Rate was assessed by measuring the rate of product formation over 60 minutes of incubation using a kinetic method to take scans every 60 seconds to determine product formation, using reaction conditions as described in Example 4B. The enzyme produces product at an initial rate that is approximately linear for the first one hour of the reaction. The concentrations of enzyme and substrate are the same across the sample set for each enzyme variant. Enzyme variants with faster initial rates deliver a higher product yield in one hour than variants with slower initial rates produce at the same time-period.
# as §3
molecule,measurement,setting,value
"A3: Tgase variant S2P Q50S Q74A K91H Q124L K151R K152R N282M G283A relative to SEQ ID NO: 2 (protein, UniProt P81453 77-407, looked up, variant S2P Q50S Q74A K91H Q124L K151R K152R N282M G283A) Protein-glutamine …: DPDDRVTPPAEPLDRMPDPYRPSYGRAETVVNNYIRKWQQVYSHRDGRKSQMTEEQREWLSYGCVGVTWVNSGAYPTNRLAFASFDEDRFHNELKNGRPRSGETRAEFEGRVAKESFDEEKGFLRAREVASVMNRALENAHDESAYLDNLRRELANGNDALRNEDARSPFYSALRNTPSFKERNGGNHDPSRMKAVIYSKHFWSGQDRSSSADKRKYGDPDAFRPAPGTGLVDMSRDRNIPRSPTSPGEGFVNFDYGWFGAQTEADADKTVWTHGNHYHAPMASLGAMHVYESKFRNWSEGYSDFDRGAYVITFIPKSWNTAPDKVKQGWP",Productivity,[1],+ (an improvement between 1.2 and 2-fold)
same,Fluorescence/[Enzyme],"[2]; FITC-Cadaverine, 37 °C",20.3 RFU/ppm
same,Fluorescence/[Enzyme],"[2]; FITC-Cadaverine, 50 °C",182.2 RFU/ppm
same,Fluorescence/[Enzyme],"[2]; FITC-Gelatin, 37 °C",8.4 RFU/ppm
same,Fluorescence/[Enzyme],"[2]; FITC-Gelatin, 50 °C",36.9 RFU/ppm
same,Rate,[3],−
